Tests used:
[1] = biological target: chicken skeletal muscle actin (chicken, UniProt P68139 1-377); experiment: pull-down
[2] = biological target: fluorescently-labeled rabbit skeletal muscle actin (TMR-actin) (rabbit, UniProt P68135 1-377, TAMRA label (TAMRA NHS ester)); experiment: pull-down
[3] = biological target: rabbit skeletal muscle actin (rabbit, UniProt P68135 1-377); experiment: pull-down
AUC = biological target: the molecule itself; experiment: AUC
INF2-Nterm = INF2-Nterm (human, UniProt Q27J81 1-420); experiment: fluorescence polarisation
Sequence of INF2-Nterm (Q27J81 1-420): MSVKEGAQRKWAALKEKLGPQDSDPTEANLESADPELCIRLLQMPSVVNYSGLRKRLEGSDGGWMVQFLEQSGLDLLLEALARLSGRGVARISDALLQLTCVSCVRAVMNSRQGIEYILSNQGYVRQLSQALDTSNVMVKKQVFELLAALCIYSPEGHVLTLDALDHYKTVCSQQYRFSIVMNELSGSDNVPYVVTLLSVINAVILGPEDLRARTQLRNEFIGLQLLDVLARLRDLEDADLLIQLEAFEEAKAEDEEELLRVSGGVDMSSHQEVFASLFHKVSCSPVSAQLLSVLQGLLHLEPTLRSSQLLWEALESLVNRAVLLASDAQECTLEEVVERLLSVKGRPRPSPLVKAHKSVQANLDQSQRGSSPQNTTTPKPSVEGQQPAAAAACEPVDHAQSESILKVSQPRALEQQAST

| binding result [1] | binding result [2] | binding result [3] | Kd (INF2-Nterm) [µM] | Binder | stoichiometry N (AUC) |
| --- | --- | --- | --- | --- | --- |
| binds | binds | binds | – | human CAP2 with C-terminal GFP and Strep-tag II (natural protein) MANMQGLVERLERAVSRLESLSAESHRPPGNCGEVNGVIAGVAPSVEAFDKLMDSMVAEFLKNSRILAGDVETHAEMVHSAFQAQRAFLLMASQYQQPHENDVAALLKPISEKIQEIQTFRERNRGSNMFNHLSAVSESIPALGWIAVSPKPGPYVKEMNDAATFYTNRVLKDYKHSDLRHVDWVKSYLNIWSELQAYIKEHHTTGLTWSKTGPVASTVSAFSVLSSGPGLPPPPPPLPPPGPPPLFENEGKKEESSPSRSALFAQLNQGEAITKGLRHVTDDQKTYKNPSLRAQGGQTQSPTKSHTPSPTSPKSYPSQKHAPVLELEGKKWRVEYQEDRNDLVISETELKQVAYIFKCEKSTIQIKGKVNSIIIDNCKKLGLVFDNVVGIVEVINSQDIQIQVMGRVPTISINKTEGCHIYLSEDALDCEIVSAKSSEMNILIPQDGDYREFPIPEQFKTAWDGSKLITEPAEIMA | 6 |
| – | – | – | ~28 | INF2-Cterm labeled with tetramethylrhodamine (domain or fragment, tetramethylrhodamine-succinimide (TMR) label) not shown | – |

Reference: article PMC6501848 (Nature cell biology, 2019)
